Values belong to the compound of their own block, whether it stands above or below them. Ends that are not written are not given here.
What was measured:
[1] = turbidity change of DMPC multilamellar vesicles (MLV) after mixing with peptide; assay type: physicochemical
Procedure: A mimetic peptide, SEQ ID NO: 4, was mixed with multilamellar vesicles comprised of DMPC. A DMPC chloroform solution was gently dried by nitrogen stream in the fume hood or by rotor evaporator. Resultant lipid film was further dried in vacuum desiccators and subjected to vacuum for at least 3 hours to remove residual chloroform. Phosphate buffered saline (PBS) was added to the lipid film and mixed using a vortex mixer to prepare an MLV suspension (2.5 mg/mL). The peptide was dissolved in PBS (1 mg/mL) then mixed with the same volume of MLV suspension at room temperature. […] At 0.5 mg/mL mimetic peptide in solution, the absorbance at 400 nm is zero. At 1.25 mg/mL DMPC in solution, the absorbance at 400 nm is 0.1. When the two solutions are combined and after approximately 5 minutes of mixing, the absorbance begins to approach zero. After approximately 15 minutes of mixing, the solution becomes completely clear, i.e., the absorbance is zero, thus evidencing mimetic peptide/phospholipid complexing.

[2] = circular dichroism (CD) spectra, calculated percent secondary structure; assay type: physicochemical
[3] = CD spectra after heating then cooling; assay type: physicochemical; settings: 25° C., heated to 70° C., cooled back to 25° C.; 0.0625-0.5 mg/mL
Procedure: As shown in each chart (vii) through (x), a CD spectrum of the mimetic peptide was obtained at t1=25° C., then heated to t2=70° C., then cooled back to t3=25° C. for varying concentrations, e.g., 0.5 mg/mL mimetic peptide, 0.25 mg/mL mimetic peptide, 0.125 mg/mL mimetic peptide, and 0.0625 mg/mL mimetic peptide. The spectrums at t and t3 show a substantially identical spectrum for each of t1 and t3 at the various concentrations, thus indicating the mimetic peptide's secondary structure change is reversible when subjected to heat.

[4] = system: reverse cholesterol transport; settings: cited from earlier work

- absorbance at 400 nm ([1]; 1.25 mg/mL DMPC in solution (MLV in PBS)): 0.1
Compound: CCCCCCCCCCCCCC(=O)OC[C@H](COP(=O)([O-])OCC[N+](C)(C)C)OC(=O)CCCCCCCCCCCCC [DMPC, dimyristoylphosphatidylcholine, reference compound]

Compound: Ac-DWFKAFYDKVAEKFKEAF-NH2 [SEQ ID NO: 4, 18-mer peptide, 4F, N-acetyl, C-amide]
- alpha helicity ([2]; 0.125 mg/mL mimetic peptide): 10.5%
- alpha helicity ([2]; 0.25 mg/mL mimetic peptide): 16%
- alpha helicity ([2]; 0.5 mg/mL mimetic peptide): 19.5%
- absorbance at 400 nm ([1]; 0.5 mg/mL mimetic peptide in solution (PBS)): zero
- secondary structure change when subjected to heat [3]: reversible

Compound: DWFKAFYDKVAEKFKEAF (not fully specified) [D-4F, 18-mer apo A-I mimetic peptide 4F, D enantiomer]
- reverse cholesterol transport in vitro ([4]; when a phospholipid complex is presented): function more effectively
- reverse cholesterol transport ([4]; without a lipid complex): effective

Compound: PALEDLRQGLLPVLESFKVFLSALEEYTKKLNTQ [33-mer peptide mimetic]
- need of phospholipid complex for effective reverse cholesterol transport [4]: requires phospholipid complex formation
